Binding signal (fold lower than denatured) and binding signal (% of total peak area) data for 2 sequences are collected here from patent US20020061531.

Series [1] deals with anti-BPDE-DNA monoclonal antibody 8E11 (Mus musculus). To be noted: single (+/-)-anti-BPDE-N2-dG adduct in the SEQ:5 segment; CE/LIF; complex formation with native duplex, 20 ug/mL (printed mg/mL) 8E11.
Series [2] deals with anti-BPDE-DNA monoclonal antibody 5D11 (Mus musculus). To be noted: slight cross-reaction at 20 ug/mL 5D11.

Turning to “CCTTAAGCTTCCTCAACCACTTACCATACTCGAGATTCCCATTATGCATAACCGTCATATGCCGCCTCTGACCTTCCTAGAATTCCATCC (double strand) [TMR-BPDE-90-mer, native duplex]”, in series [1], the binding signal (fold lower than denatured) turned out to be 6.

“CCTTAAGCTTCCTCAACCACTTACCATACTCGAGATTCCCATTATGCATAACCGTCATATGCCGCCTCTGACCTTCCTAGAATTCCATCC [TMR control 90-mer (no BPDE), heat-denatured]”: the binding signal (% of total peak area) in series [2] was 2.1.
